Measurements from the DeepSol protein solubility set.

test: soluble on expression in E. coli; label from the status in PepcDB or PDB records

| Sequence | soluble on expression in E. coli |
| --- | --- |
| GAMEVIKNPKVFIDPLSVFKEIPFREDILRDAAIAIRYFVKNEVKFSNLFLGLTGTGKTFVSKYIFNEIEEVKKEDEEYKDVKQAYVNCREVGGTPQAVLSSLAGKLTGFSVPKHGINLGEYIDKIKNGTRNIRAIIYLDEVDTLVKRRGGDIVLYQLLRSDANISVIMISNDINVRDYMEPRVLSSLGPSVIFKPYDAEQLKFILSKYAEYGLIKGTYDDEILSYIAAISAKEHGDARKAVNLLFRAAQLASGGGIIRKEHVDKAIVDYEQERLIEAVKALPFHYKLALRSLIESEDVMSAHKMYTDLCNKFKQKPLSYRRFSDIISELDMFGIVKIRIINRGRAGGVKKYALVEDKEKVLRALNETFEDSISIGDFDDVGEN | soluble |
| GAMGKVTHSIHIEKSDTAADTYGFSLSSVEEDGIRRLYVNSVKETGLASKKGLKAGDEILEINNRAADALNSSMLKDFLSQPSLGLLVRTYPEL | soluble |
| GANDRYTETKRIVDSHCLHTICSSGRCPNMGECWGKGTATFMIGGDICTRSCKFCNTQTGRPHPLDANEPTHVAESIALMKLDHAVVTSVDRDDLPDLGAGHWAHTIREIKRLNPQTTIEVLIPDFQGRMELVDLVIEANPDIISHNMETVRRISPLVRSAANYDTSLQVIGHIARSGTKSKSGIMVGLGETPQEVETIMDDLLAVGCQILTIGQYLQPTHRHYPVAEYVTPQQFATYKTIGLEKGFSIVESAPLVRSSYHAEKHIR | not soluble |
| GANETTKQESPVVDTDINAVTNYIVGMCQKFLQKGEKVTPSSKLEELRTREDRLWDCLDTVEFVLDVEEIFDVTVPDEVADNFQTLQEIADFVVSERAKAGKFMKDQ | soluble |
| GDLLVVTLENITEAKQGEISLNAALHAAEKQERLYNSITNNTPDLVYVFGLDYSFTYANKALLTMWGKTAEEAIGKGLRENGYEEWHAQMHEREIDEIKATKKSIRGTVSFPHAELGSRMYDYILVPVLNESGEVEAIAGTTRD | not soluble |
| GDVVEAVENAVARVADTIGSGPSNSQAVPALTAVETGHTSQVTPSDTVQTRHVKNYHSRSESSIENFLSRSACVYMGEYHTTNSDQTKLFASWTISARRMVQMRRKLEIFTYVRFDVEVTFVITSKQDQGTQLGQDMPPLTHQIMYIPPGGPIPKSVTDYTWQTSTNPSIFWTEGNAPPRMSIPFISIGNAYSNFYDGWSHFSQNGVYGYNTLNHMGQIYVRHVNGSSPLPMTSTVRMYFKPKHVKAWVPRPPRLCQYKNASTVNFSPTDITDKRNSITYIPDTVKPDVSNH | soluble |
| GEFPLQTKTDIHAVLASNGRIIYISANSKLHLGYLQGEMIGSFLKTFLHEEDQFLVESYFYNEHHLMPCTFRFIKKDHTIVWVEAAVEIVTTRAERTEREIILKMKVLEEE | soluble |
| GEIWVYIDHIGEKPNRASFEIMGEARRIADLMDTSLSAVMVGGEATKSLIEETFEYGADKVYFVETKGFDRYDNEVYTRALAKVIKKYKPEAVFFPGTKNARELASTTAIEVDTGLIADCTNFDVDDKGVLLSTRPDFGGKEMSTIICPRHRPVMVTVRAGVFMPLPRVPGRKGELAREEIDDLFTRLKVLDYRVIEKRNI | not soluble |
| GELPEKSKLQEIYQELTRLKAAVGELPEKSKLQEIYQELTRLKAAVGELPEKSKLQEIYQELTRLKAAVGELPEKSKLQEIYQELTRLKAAVGELPEKSKLQEIYQELTELKAAVGELPEKSKLQEIYQELTQLKAAVGELPDQSKQQQIYQELTDLKTAFERLGHH | soluble |
| GEPDAQNWQHTVGKDVVAGLTQREIDRQEVINELFVTEASHLRTLRVLDLIFYQRMKKENLMPREELARLFPNLPELIEIHNSWCEAMKKLREEGPIIKEISDLMLARFDGPAREELQQVAAQFCSYQSIALELIKTKQRKESRFQLFMQEAESHPQCRRLQLRDLIISEMQRLTKYPLLLESIIKHTEGGTSEHEKLCRARDQCREILKYVNEAVKQTENRHRLEGYQKRLDATALERASNPLAAEFKSLDLTTRKMIHEGPLTWRISKDKTLDLHVLLLEDLLVLLQKQDEKLLLKCHSKTAVGSSDSKQTFSPVLKLNAVLIRSVATDKRAFFIICTSKLGPPQIYELVALTSSDKNTWMELLEEAVRNATRHPHHHHHH | soluble |
| GERRIPESRILRREVVEATSAVAAALQIPARAPVIEMTRVRLIDGAPMLAEEIWLPYDRFAAFSRLELDSIGDLLYPVYEAHCNQIVASATETLTVEAIGPAHARLLRIEPGTPAVVIERLAYGYDRRPLEWRRSRGPASEFIYQAEIR | not soluble |
